According to patent publication US20250361274A1, “PEPTIDE AND PEPTIDE-CONTAINING AGENT” (PEPTIDREAM INC., priority 2022, published 2025):
Numbered stars: 1 amine (or outer) side, 2 acyl side, 3 side chain; on linkers, the order of the positions; unused ones are H or OH. Bridge positions count the residues as written; N and C are the ends. Square brackets hold non-standard residues; d marks the D form. Ends that are not written are not given here. Peptide text beside a SMILES is read from it. KCOpipzaa = N6-(4-(carboxymethyl)piperazine-1-carbonyl)-L-lysine, O=C(NCCCC[C@H](N[*:1])C(=O)[*:2])N1CCN(CC(=O)[*:3])CC1; Bph3C = (S)-2-amino-3-(3'-chloro-[1,1'-biphenyl]-4-yl)propanoic acid, O=C([C@H](Cc1ccc(-c2cccc(Cl)c2)cc1)N[*:1])[*:2]; Phe(4-(3-Py)) = N[C@@H](Cc1ccc(-c2cccnc2)cc1)C(=O)O; 3Pal(6-Ph) = N[C@@H](Cc1ccc(-c2ccccc2)nc1)C(=O)O; Phe(4-COOH) = N[C@@H](Cc1ccc(C(=O)O)cc1)C(=O)O; NMePhe(4-Me) = CN[C@@H](Cc1ccc(C)cc1)C(=O)O; Bip = N[C@@H](Cc1ccc(-c2ccccc2)cc1)C(=O)O; Phe(3-Me) = Cc1cccc(C[C@H](N)C(=O)O)c1; Phe(4-F) = N[C@@H](Cc1ccc(F)cc1)C(=O)O; cisHyp = O=C(O)[C@@H]1C[C@H](O)CN1; Hyp = O=C(O)[C@@H]1C[C@@H](O)CN1; NMeF = CN[C@@H](Cc1ccccc1)C(=O)O; 4Pal = N[C@@H](Cc1ccncc1)C(=O)O; Aad = N[C@@H](CCCC(=O)O)C(=O)O; Cha = N[C@@H](CC1CCCCC1)C(=O)O; Cba = N[C@@H](CC1CCC1)C(=O)O; Abu = CC[C@H](N)C(=O)O; βAla = NCCC(=O)O

Assays:
BMP7 = molecular target: T1, BMP7 (Homo sapiens, UniProt P18075); assay: BMP7 signal transduction inhibitory activity: SMAD1 phosphorylation by BMP7 stimulus, A549 cells; assay type: cell-based; conditions: for aLISA BMP7: A549 cells
T1 sequence (P18075 293-431): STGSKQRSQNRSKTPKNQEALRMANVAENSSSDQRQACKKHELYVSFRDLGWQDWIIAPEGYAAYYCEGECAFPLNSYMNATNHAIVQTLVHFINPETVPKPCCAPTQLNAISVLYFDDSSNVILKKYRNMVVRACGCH
Method in brief: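 SMAD1 phosphorylation readout in A549 cells stimulated with BMP7 (10 nM). Peptides were tested at three levels (e.g. 1/10/100, 10/100/1,000, 100/300/1,000, 10/30/90 nM) or at eight points, 1/3 steps, from 100 or 1,000 nM. Recombinant Noggin served as positive control at matching concentrations.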

BMP4 = molecular target: T2, BMP4 (Homo sapiens, UniProt P12644); assay: BMP4 signal transduction inhibitory activity: SMAD1 phosphorylation by BMP4 stimulus, AlphaLISA SureFire, A549 cells; assay type: cell-based; conditions: for aLISA BMP4: A549 cells
T2 sequence (P12644 293-408): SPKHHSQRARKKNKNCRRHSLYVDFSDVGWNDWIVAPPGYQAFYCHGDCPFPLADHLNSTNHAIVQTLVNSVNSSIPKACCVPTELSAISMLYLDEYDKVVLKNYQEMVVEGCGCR

[1] = BMP7 10 nM stimulus, peptide conc. in assay 100, 300, 1000 nM, class symbols
[2] = BMP4 0.2 nM stimulus, peptide conc. in assay 0.02, 0.2, 2 nM, class symbols
[3] = inhibition of SMAD1 phosphorylation by BMP7 stimulus, AlphaLISA, class by peptide concentration zone
[4] = inhibition of SMAD1 phosphorylation by BMP4 stimulus, AlphaLISA, class by peptide concentration zone
[5] = SMAD1 phosphorylation, BMP7 10 nM, peptide conc. in assay 1, 10, 100 nM
[6] = SMAD1 phosphorylation, BMP4 0.2 nM, peptide conc. in assay 0.2, 2, 20 nM
[7] = BMP7 10 nM, peptide 10, 100, 1000 nM, Table 6
[8] = BMP4 0.2 nM, peptide 0.02, 0.2, 2 nM, Table 6

284 (ERV[Phe(4-COOH)]V[KCOpipzaa]R[3Pal(6-Ph)][KCOpipzaa]YV[Bip][4Pal][Phe(4-COOH)][Phe(4-COOH)]SC[βAla]) [compound 284]
aLIZA BMP7 (10 nM) % inh (BMP7; [1]): ND (the inhibitory activity was less than 30% at the maximum concentration evaluated) | aLIZA BMP4 (0.2 nM) % inh (BMP4; [2]): C (showed less than 30% of inhibitory activity in 0.2 nM-addition zone and showed 30% or more of inhibitory activity in 2 nM-addition zone)

68 ({CH2CO}-E[KCOpipzaa]VYVD[KCOpipzaa][Bip]PYP[Bip][4Pal][Phe(4-COOH)][Phe(4-COOH)]SCG-NH2; thioether N-17; not fully specified) [compound 68]
aLISA BMP7 (BMP7; [3]): ND (the inhibitory activity was less than 30% at the maximum concentration evaluated) | aLISA BMP4 (BMP4; [4]): D (showed inhibitory activity of less than 50% in 2 nM-addition zone)

42 (Ac-AKVYVDK(Ac)[Bip]PYP[Bip]Y[Phe(4-COOH)][Phe(4-COOH)]SCG-NH2; thioether (positions not given here); not fully specified (bridges)) [compound 42]
aLISA BMP7 (BMP7; [3]): ND (the inhibitory activity was less than 30% at the maximum concentration evaluated) | aLISA BMP4 (BMP4; [4]): A (showed an inhibitory activity of 50% or more in a zone to which the peptide was added to in an amount of 0.2 nM)

350 (FG[NMeF]G[Bip]GDD[Cha]A[NMeF]L[Abu]CG-NH2; not fully specified (N-terminus, bridges)) [compound 350]
aLISA BMP7 (10 nM) % inh (BMP7; [5]): D (showed less than 30% of inhibitory activity in 10 nM-addition zone and showed 30% or more of inhibitory activity in 100 nM-addition zone) | aLISA BMP4 (0.2 nM) % inh (BMP4; [6]): ND (the inhibitory activity was less than 30% at the maximum concentration evaluated)

326 (FG[NMeF]G[Phe(4-(3-Py))]GDD[Cha]A[NMeF]LHCG-NH2; not fully specified) [compound 326]
aLISA BMP7 (10 nM) % inh (BMP7; [5]): D (showed less than 30% of inhibitory activity in 10 nM-addition zone and showed 30% or more of inhibitory activity in 100 nM-addition zone) | aLISA BMP4 (0.2 nM) % inh (BMP4; [6]): ND (the inhibitory activity was less than 30% at the maximum concentration evaluated)

71 ({CH2CO}-ERVYVDR[Bip]PYP[Bip][Phe(4-F)][Phe(4-COOH)][Phe(4-COOH)]SCG-NH2; thioether N-17; not fully specified) [compound 71]
aLISA BMP7 (BMP7; [3]): C (showed less than 50% of inhibitory activity in 10 nM-addition zone and showed 50% or more of inhibitory activity in 100 nM-addition zone) | aLISA BMP4 (BMP4; [4]): A (showed an inhibitory activity of 50% or more in a zone to which the peptide was added to in an amount of 0.2 nM)

315 (ERV[Phe(4-COOH)][Cba][KCOpipzaa]R[3Pal(6-Ph)][KCOpipzaa]Y[Hyp][Bip][4Pal][Phe(4-COOH)][Phe(4-COOH)]SCG-NH2) [compound 315]
aLIZA BMP7 (10 nM) % inh (BMP7; [7]): E (showed less than 30% of inhibitory activity in 100 nM-addition zone and showed 30% or more of inhibitory activity in 1,000 nM-addition zone) | aLIZA BMP4 (0.2 nM) % inh (BMP4; [8]): B (showed less than 30% of inhibitory activity in 0.02 nM-addition zone and showed 30% or more of inhibitory activity in 0.2 nM-addition zone)

341 (FG[NMeF]G[Bip]GDD[Cha]S[NMeF]LHCG-NH2; not fully specified (N-terminus, bridges)) [compound 341]
aLISA BMP7 (10 nM) % inh (BMP7; [5]): D (showed less than 30% of inhibitory activity in 10 nM-addition zone and showed 30% or more of inhibitory activity in 100 nM-addition zone) | aLISA BMP4 (0.2 nM) % inh (BMP4; [6]): ND (the inhibitory activity was less than 30% at the maximum concentration evaluated)

275 (ERV[Phe(4-COOH)]VDR[3Pal(6-Ph)][KCOpipzaa]Y[Hyp][Bip]Y[Phe(4-COOH)][Phe(4-COOH)]SCG-NH2; not fully specified) [compound 275]
aLIZA BMP7 (10 nM) % inh (BMP7; [1]): G (showed less than 30% of inhibitory activity in 100 nM-addition zone and showed 30% or more of inhibitory activity in 300 nM-addition zone) | aLIZA BMP4 (0.2 nM) % inh (BMP4; [2]): B (showed less than 30% of inhibitory activity in 0.02 nM-addition zone and showed 30% or more of inhibitory activity in 0.2 nM-addition zone)

342 (FG[NMeF]G[Bip]GDD[Cha]T[NMeF]LHCG-NH2; not fully specified (N-terminus, bridges)) [compound 342]
aLISA BMP7 (10 nM) % inh (BMP7; [5]): D (showed less than 30% of inhibitory activity in 10 nM-addition zone and showed 30% or more of inhibitory activity in 100 nM-addition zone) | aLISA BMP4 (0.2 nM) % inh (BMP4; [6]): ND (the inhibitory activity was less than 30% at the maximum concentration evaluated)

34 ({CH2CO}-AKVYVDH[Bip]PYP[Bip]Y[Phe(4-COOH)][Phe(4-COOH)]SCG-NH2; thioether N-17; not fully specified) [compound 34]
aLISA BMP7 (BMP7; 10 nM BMP7, peptides of Synthesis 2, peptide 1, 10, 100 nM): C (showed less than 50% of inhibitory activity in 10 nM-addition zone and showed 50% or more of inhibitory activity in 100 nM-addition zone) | aLISA BMP4 (BMP4; SMAD1 phosphorylation, peptides of Synthesis 2, peptide 0.02, 0.2, 2 nM): A (showed an inhibitory activity of 50% or more in a zone to which the peptide was added to in an amount of 0.2 nM)

Cc1ccc(C[C@H]2C(=O)N[C@@H](CC(C)C)C(=O)N3C[C@@H](O)C[C@H]3C(=O)N[C@H](C(=O)NCCC(=O)N[C@H](CCC(=O)O)C(=O)O)CSCC(=O)N[C@@H](Cc3ccc(F)cc3)C(=O)NCC(=O)N(C)[C@@H](Cc3ccccc3)C(=O)NCC(=O)N[C@@H](Cc3ccc(-c4ccccc4)nc3)C(=O)NCC(=O)N[C@@H](CC(=O)O)C(=O)N[C@@H](CCC(=O)O)C(=O)N[C@@H](CC3CCCCC3)C(=O)N[C@@H](CCCC(=O)O)C(=O)N2C)cc1 [compound 417] ({CH2CO}-[Phe(4-F)]G[NMeF]G[3Pal(6-Ph)]GDE[Cha][Aad][NMePhe(4-Me)]L[cisHyp]C[βAla][dE]-OH; thioether N-14)
aLISA BMP7 (10 nM) % inh (BMP7; BMP7 10 nM stimulus, peptide conc. in assay 1, 10, 100 nM): C (showed less than 30% of inhibitory activity in a zone to which the peptide was added in an amount of 1 nM and showed 30% or more of inhibitory activity in 10 nM-addition zone) | aLISA BMP4 (0.2 nM) % inh (BMP4; BMP4 0.2 nM stimulus, peptide conc. in assay 0.2, 2, 20 nM): ND (the inhibitory activity was less than 30% at the maximum concentration evaluated)

280 (ERV[Phe(4-COOH)]VDR[3Pal(6-Ph)][KCOpipzaa]Y[Hyp][Bip][4Pal][Phe(4-COOH)][Phe(4-COOH)]SC[βAla]) [compound 280]
aLIZA BMP7 (10 nM) % inh (BMP7; [1]): H (showed less than 30% of inhibitory activity in 300 nM-addition zone and showed 30% or more of inhibitory activity in 1,000 nM-addition zone) | aLIZA BMP4 (0.2 nM) % inh (BMP4; [2]): B (showed less than 30% of inhibitory activity in 0.02 nM-addition zone and showed 30% or more of inhibitory activity in 0.2 nM-addition zone)

322 ([4Pal]G[NMeF]G[Bip]GDD[Cha]A[NMeF]LHCG-NH2) [compound 322]
aLISA BMP7 (10 nM) % inh (BMP7; [5]): D (showed less than 30% of inhibitory activity in 10 nM-addition zone and showed 30% or more of inhibitory activity in 100 nM-addition zone) | aLISA BMP4 (0.2 nM) % inh (BMP4; [6]): ND (the inhibitory activity was less than 30% at the maximum concentration evaluated)

314 (ERV[Phe(4-COOH)][Cba][KCOpipzaa]R[3Pal(6-Ph)][KCOpipzaa]Y[Hyp][Bph3C]Y[Phe(4-COOH)][Phe(4-COOH)]SCG-NH2; not fully specified) [compound 314]
aLIZA BMP7 (10 nM) % inh (BMP7; [7]): E (showed less than 30% of inhibitory activity in 100 nM-addition zone and showed 30% or more of inhibitory activity in 1,000 nM-addition zone) | aLIZA BMP4 (0.2 nM) % inh (BMP4; [8]): B (showed less than 30% of inhibitory activity in 0.02 nM-addition zone and showed 30% or more of inhibitory activity in 0.2 nM-addition zone)

381 (FG[NMeF]G[Phe(3-Me)]GDD[Cha]A[NMeF]LHCG-NH2; not fully specified) [compound 381]
aLISA BMP7 (10 nM) % inh (BMP7; BMP7 10 nM stimulus, peptide conc. in assay 10, 30, 90 nM): G (showed less than 30% of inhibitory activity in 30 nM-addition zone and showed 30% or more of inhibitory activity in 90 nM-addition zone) | aLISA BMP4 (0.2 nM) % inh (BMP4; BMP4 0.2 nM stimulus, peptide conc. in assay 2, 20, 200 nM): ND (the inhibitory activity was less than 30% at the maximum concentration evaluated)

143 ({CH2CO}-ERVYVDR[Bip]PYY[Bip]Y[Phe(4-COOH)][Phe(4-COOH)]SCG-NH2; thioether N-17; not fully specified) [compound 143]
aLISA BMP7 (BMP7; inhibition of SMAD1 phosphorylation by BMP7 stimulus, peptides of Synthesis 1, classes E, F, ND): E (showed 50% or more of inhibitory activity in a zone to which the peptide was added in an amount of 10 nM) | aLISA BMP4 (BMP4; inhibition of SMAD1 phosphorylation by BMP4 stimulus, peptides of Synthesis 1, classes D-F, ND): D (showed 50% or more of inhibitory activity in 0.2 nM-addition zone)
